Laboratory results as given in patent US20160200782A1 (MOERAE MATRIX, published 2016).

T1: TAK1(h) (human, UniProt O43318 1-303, limits assumed)
T1 sequence (looked up): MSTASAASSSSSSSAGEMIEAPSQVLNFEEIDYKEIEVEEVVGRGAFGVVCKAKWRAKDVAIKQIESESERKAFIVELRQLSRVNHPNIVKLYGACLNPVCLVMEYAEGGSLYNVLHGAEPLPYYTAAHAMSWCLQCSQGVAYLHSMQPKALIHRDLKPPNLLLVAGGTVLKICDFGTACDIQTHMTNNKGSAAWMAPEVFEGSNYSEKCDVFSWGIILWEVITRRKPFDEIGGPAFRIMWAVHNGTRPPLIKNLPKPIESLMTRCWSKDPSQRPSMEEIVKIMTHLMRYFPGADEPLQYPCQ

T2: PhKγ2(h) (human, UniProt P15735 1-406, limits assumed)
T2 sequence (looked up): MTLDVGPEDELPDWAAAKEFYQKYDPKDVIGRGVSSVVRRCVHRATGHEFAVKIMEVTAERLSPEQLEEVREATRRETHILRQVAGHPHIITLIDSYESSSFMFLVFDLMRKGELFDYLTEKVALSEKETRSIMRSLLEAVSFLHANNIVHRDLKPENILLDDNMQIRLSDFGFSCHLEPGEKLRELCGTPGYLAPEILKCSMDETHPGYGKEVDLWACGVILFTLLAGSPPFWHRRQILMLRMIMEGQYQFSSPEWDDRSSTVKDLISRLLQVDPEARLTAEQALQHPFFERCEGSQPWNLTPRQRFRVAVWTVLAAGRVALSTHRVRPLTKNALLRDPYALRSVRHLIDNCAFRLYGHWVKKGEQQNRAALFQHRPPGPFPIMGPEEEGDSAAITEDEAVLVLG

T3: TBK1(h) (human, UniProt Q9UHD2 1-729, limits assumed)
T3 sequence (looked up): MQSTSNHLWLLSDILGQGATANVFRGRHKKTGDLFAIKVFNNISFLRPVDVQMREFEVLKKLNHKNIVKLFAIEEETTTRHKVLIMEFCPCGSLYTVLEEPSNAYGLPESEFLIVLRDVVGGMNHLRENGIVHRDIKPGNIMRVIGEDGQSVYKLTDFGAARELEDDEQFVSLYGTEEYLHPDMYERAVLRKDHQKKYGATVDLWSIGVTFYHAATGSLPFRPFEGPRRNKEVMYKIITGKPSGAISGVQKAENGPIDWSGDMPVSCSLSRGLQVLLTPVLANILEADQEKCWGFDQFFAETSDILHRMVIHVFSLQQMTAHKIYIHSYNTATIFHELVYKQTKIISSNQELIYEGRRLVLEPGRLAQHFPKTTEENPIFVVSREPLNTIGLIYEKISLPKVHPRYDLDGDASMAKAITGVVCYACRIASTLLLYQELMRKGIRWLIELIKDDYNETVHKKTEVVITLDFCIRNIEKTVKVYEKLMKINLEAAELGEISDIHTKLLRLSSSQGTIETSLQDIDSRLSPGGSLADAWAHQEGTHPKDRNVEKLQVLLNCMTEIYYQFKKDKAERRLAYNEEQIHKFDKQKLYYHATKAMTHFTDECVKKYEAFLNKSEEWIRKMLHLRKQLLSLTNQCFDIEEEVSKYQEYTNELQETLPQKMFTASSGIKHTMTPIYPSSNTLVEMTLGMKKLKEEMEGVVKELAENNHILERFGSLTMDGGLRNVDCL

T4: NLK(h) (human, UniProt Q9UBE8 1-527, limits assumed)
T4 sequence (looked up): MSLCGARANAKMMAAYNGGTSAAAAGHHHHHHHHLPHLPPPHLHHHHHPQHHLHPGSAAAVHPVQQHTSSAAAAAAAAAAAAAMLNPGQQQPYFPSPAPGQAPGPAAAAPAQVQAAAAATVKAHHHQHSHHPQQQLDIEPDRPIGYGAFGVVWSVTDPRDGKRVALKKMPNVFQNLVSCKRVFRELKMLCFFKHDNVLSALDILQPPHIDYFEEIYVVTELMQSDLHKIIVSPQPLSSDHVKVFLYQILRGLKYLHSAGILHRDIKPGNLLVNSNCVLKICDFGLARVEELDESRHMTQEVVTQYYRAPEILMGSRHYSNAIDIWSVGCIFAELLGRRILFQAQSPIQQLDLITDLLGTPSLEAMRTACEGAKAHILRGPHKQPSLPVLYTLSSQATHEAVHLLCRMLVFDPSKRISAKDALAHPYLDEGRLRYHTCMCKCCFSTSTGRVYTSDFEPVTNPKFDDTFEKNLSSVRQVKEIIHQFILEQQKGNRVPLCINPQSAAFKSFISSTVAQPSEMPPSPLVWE


How the values were obtained:
Test in all cases: cell-based or functional assay
[1] = molecular target: T1, TAK1(h)
[2] = molecular target: T2, PhKγ2(h)
[3] = molecular target: CaMKI(h) (human, UniProt Q14012 1-370, limits assumed)
[4] = molecular target: Mnk2(h) (human, UniProt Q9HBH9 1-465, limits assumed)
[5] = molecular target: mTOR/FKBP12(h) (human, UniProt P42345 1362-2549; P62942 1-108)
[6] = molecular target: MST3(h) (human, UniProt Q9Y6E0 1-443, limits assumed)
[7] = molecular target: Flt4(h) (human, UniProt P35916 800-1363, limits assumed)
[8] = molecular target: Rsk2(h) (human, UniProt P51812 1-740, limits assumed)
[9] = molecular target: CDK5/p35(h) (human, UniProt Q00535 1-292; Q15078 1-307)
[10] = molecular target: T3, TBK1(h)
[11] = molecular target: T4, NLK(h)

Chain of Mnk2(h) (Q9HBH9 whole entry): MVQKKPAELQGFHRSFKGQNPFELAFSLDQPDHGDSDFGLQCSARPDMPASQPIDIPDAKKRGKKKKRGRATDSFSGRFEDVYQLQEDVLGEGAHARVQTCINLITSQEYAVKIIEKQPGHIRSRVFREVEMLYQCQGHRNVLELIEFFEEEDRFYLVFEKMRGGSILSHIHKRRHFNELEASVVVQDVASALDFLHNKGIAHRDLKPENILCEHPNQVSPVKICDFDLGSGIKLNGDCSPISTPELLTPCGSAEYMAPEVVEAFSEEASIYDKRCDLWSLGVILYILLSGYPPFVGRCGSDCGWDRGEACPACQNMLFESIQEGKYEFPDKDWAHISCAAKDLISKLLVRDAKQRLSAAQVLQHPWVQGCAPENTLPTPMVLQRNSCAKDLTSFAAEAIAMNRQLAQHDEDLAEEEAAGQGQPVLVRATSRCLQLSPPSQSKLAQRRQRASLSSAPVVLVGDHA
Chain of Rsk2(h) (P51812 whole entry): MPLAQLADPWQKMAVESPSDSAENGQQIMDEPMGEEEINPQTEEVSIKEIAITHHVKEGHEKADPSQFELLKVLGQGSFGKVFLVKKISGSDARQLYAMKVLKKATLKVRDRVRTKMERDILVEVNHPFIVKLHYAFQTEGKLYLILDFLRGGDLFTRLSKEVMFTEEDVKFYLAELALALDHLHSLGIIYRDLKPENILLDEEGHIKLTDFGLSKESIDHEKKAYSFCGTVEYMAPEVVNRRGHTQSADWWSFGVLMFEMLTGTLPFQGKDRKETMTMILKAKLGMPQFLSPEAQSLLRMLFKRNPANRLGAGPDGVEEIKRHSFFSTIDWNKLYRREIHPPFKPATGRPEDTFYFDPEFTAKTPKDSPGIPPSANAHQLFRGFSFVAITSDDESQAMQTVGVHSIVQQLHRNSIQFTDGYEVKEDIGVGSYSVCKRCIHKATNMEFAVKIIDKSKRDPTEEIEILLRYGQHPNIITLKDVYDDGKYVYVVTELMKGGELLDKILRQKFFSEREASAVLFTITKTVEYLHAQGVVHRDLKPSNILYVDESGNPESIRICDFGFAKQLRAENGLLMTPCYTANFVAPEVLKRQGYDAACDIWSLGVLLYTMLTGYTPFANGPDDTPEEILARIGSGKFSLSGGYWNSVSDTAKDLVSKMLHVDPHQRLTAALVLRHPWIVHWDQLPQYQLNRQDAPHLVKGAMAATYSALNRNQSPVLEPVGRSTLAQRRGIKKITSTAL
Chain of CaMKI(h) (Q14012 whole entry): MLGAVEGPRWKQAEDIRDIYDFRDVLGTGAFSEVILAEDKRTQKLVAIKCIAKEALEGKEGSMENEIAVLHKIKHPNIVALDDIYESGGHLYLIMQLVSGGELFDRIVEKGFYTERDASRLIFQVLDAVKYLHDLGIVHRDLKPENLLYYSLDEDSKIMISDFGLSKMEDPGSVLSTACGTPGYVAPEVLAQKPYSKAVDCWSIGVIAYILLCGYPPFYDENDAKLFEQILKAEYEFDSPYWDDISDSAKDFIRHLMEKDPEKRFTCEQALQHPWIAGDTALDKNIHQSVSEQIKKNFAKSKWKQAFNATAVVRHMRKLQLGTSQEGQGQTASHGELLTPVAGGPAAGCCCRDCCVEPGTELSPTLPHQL
Chain of mTOR/FKBP12(h) (P42345 1362-2549 limits assumed, chain 1 of 2): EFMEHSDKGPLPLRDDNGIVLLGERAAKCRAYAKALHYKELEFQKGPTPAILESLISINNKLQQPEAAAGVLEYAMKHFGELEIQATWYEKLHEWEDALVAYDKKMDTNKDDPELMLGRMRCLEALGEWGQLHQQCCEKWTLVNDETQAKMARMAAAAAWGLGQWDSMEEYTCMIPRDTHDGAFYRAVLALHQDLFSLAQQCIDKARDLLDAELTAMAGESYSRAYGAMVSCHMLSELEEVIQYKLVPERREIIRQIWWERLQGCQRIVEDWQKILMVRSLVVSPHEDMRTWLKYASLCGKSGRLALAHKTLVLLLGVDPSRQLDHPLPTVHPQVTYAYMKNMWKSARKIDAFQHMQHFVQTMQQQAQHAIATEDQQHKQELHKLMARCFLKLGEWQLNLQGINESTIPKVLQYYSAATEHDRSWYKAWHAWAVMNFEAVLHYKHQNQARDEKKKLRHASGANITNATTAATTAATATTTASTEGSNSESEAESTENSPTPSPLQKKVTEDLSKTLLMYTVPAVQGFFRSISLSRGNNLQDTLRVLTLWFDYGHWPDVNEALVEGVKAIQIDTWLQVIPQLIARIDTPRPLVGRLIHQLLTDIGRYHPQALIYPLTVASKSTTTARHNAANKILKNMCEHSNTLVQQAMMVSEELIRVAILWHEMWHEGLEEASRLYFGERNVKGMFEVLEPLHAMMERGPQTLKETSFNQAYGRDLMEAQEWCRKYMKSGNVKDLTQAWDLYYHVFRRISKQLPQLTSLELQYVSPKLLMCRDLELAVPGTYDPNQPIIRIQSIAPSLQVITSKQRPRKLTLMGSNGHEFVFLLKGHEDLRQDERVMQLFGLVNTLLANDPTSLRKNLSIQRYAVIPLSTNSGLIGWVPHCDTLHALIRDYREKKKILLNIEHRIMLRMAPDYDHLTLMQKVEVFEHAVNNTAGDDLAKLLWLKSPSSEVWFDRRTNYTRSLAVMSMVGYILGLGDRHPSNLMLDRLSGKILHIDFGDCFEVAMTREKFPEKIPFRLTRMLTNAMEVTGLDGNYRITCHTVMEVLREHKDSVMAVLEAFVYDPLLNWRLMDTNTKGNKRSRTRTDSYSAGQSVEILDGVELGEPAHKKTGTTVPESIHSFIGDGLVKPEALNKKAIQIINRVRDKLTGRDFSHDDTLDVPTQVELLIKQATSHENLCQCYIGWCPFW
Chain of mTOR/FKBP12(h) (P62942 whole entry, chain 2 of 2): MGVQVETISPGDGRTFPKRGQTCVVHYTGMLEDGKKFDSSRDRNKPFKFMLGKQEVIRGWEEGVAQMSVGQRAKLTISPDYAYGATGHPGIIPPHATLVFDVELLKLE
Chain of Flt4(h) (P35916 800-1363 limits assumed): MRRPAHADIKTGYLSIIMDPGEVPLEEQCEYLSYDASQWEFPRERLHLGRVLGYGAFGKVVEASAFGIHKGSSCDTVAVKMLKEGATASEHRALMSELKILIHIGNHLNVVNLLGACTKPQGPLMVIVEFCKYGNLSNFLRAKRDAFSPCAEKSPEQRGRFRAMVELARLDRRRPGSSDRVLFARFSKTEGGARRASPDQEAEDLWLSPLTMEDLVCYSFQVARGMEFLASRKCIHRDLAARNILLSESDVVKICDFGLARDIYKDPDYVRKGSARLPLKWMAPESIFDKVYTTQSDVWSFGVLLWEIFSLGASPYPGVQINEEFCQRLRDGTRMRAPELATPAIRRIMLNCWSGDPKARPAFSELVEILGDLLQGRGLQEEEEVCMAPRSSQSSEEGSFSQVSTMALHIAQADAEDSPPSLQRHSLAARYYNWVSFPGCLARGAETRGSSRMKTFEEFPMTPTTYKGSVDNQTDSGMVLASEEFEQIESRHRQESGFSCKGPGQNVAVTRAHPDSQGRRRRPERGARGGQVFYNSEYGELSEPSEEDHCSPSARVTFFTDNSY
Chain of MST3(h) (Q9Y6E0 whole entry): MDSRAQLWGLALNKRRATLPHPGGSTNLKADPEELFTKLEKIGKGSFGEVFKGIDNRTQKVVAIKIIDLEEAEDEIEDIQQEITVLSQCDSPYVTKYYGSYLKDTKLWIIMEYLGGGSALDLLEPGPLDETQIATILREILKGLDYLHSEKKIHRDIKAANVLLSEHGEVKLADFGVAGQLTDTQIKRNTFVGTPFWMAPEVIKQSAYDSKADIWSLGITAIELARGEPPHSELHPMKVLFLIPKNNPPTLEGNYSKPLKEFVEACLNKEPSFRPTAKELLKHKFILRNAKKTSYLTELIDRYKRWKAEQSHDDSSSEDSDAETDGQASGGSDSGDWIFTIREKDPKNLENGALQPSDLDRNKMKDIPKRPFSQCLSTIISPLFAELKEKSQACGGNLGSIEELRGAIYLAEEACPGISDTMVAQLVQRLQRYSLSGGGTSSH

Row | % activity [1] [%] | % activity [2] [%] | % activity [3] [%] | % activity [4] [%] | % activity [5] [%] | % activity [6] [%] | % activity [7] [%] | % activity [8] [%] | % activity [9] [%] | % activity [10] [%] | % activity [11] [%] | Binder
1 | 122 | 46 | 1 | 89 | 145 | 45 | 83 | 51 | 79 | 37 | 87 | FAKLAARLYRKALARQLGVAA [MMI-0300]
2 | 177 | 38 | 0 | 86 | 125 | 36 | 89 | 38 | 76 | 39 | 90 | KAFAKLAARLYRKALARQLGVAA [MMI-0400]
